Results from the supplement of paper PMC9170038.

Columns and labels:
[1] = tested on: MS2 coat protein; assay: apparent KD of MS2 coat protein, switch OFF state (with FMN for OFF switches, without FMN for ON switches); designed switch direction (-1 OFF switch, 1 ON switch): -1; higher = weaker reporter binding; details: FMN input: 0 or 200 uM; Eterna round: R93 (includes R88 designs)
In short: (§1)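 Illumina sequencing clusters were used for on-chip transcription of designed RNA switches. Titration with SNAP-549-labelled MS2 coat protein followed, in twofold steps from 0.7 or 1.5 nM to 3 µM in 100 mM Tris-HCl pH 7.5, 80 mM KCl, 4 mM MgCl2, without or with constant ligand. Apparent KD is each design's median of fits to normalised cluster binding curves.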

[2] = tested on: MS2 coat protein; assay: apparent KD of MS2 coat protein, switch ON state; designed switch direction (-1 OFF switch, 1 ON switch): -1; higher = weaker reporter binding; details: FMN input: 0 or 200 uM; Eterna round: R93 (includes R88 designs)
In short: as §1

Sequence: AUAAUGCGAGGAUAUACAUGAGGAUCACCCAUGUAAAUCAAUAGGAGAGCCACAUUAAGUAGAAGGUGCAUUAA [JR_Exc003_Sub502]
- apparent KD of MS2 coat protein [1]: 49.1 nM
- apparent KD of MS2 coat protein [2]: 20.4 nM

Sequence: ACAGCGUGAGGAUAUACAUGAGGAUCACCCAUGUGAAACAGGAAAAACUGAAAGACAUGUAGAAGGCACGCUGA [Exclusion 3.3 (Janderson's 'Tweaking Eli' some more )]
- apparent KD of MS2 coat protein [1]: 28.7 nM
- apparent KD of MS2 coat protein [2]: 263 nM

Sequence: GAAAACCUAGGAUAUACAUGAGGAUCACCCAUGUCAGUAGACUGGGUAAGGUCUCUCAGUAGAAGGAGGACCCA [Ratilein]
- apparent KD of MS2 coat protein [1]: 318 nM
- apparent KD of MS2 coat protein [2]: 315 nM

Sequence: AAAAGGGCAGGAUAUACAUGAGGAUCACCCAUGUGAAAAAAAAAAAAAAAAAAAAAGUGUAGAAGGGUCAAAAA [Exclusion 3 - Omei 3]
- apparent KD of MS2 coat protein [1]: 95.4 nM
- apparent KD of MS2 coat protein [2]: 55.3 nM

Sequence: AAGAAGAGAGGAUAUACAUAAUAAAAGAAAAGAAACAAAGAACAUGAGGAUCACCCAUGUAGAAGGCUCAAGAA [Khasekhemre Neferhotep I]
- apparent KD of MS2 coat protein [1]: 51 nM
- apparent KD of MS2 coat protein [2]: 32.1 nM

Sequence: GAAAAGCAAGGAUAUACAUGAGGAUCACCCAUGUGGAAUGGCGUGACCUAAAGAAAAGGUAGAAGGUGCACGUG [Soangebi]
- apparent KD of MS2 coat protein [1]: 341 nM
- apparent KD of MS2 coat protein [2]: 166 nM

Sequence: AAAGAUGGAGGAUAUACAUGAGGAUCACCCAUGUGGAAAAUAAAUUGGGAAAAAGAAAGUAGAAGGCCAAAAAA [Ex 3 May 41]
- apparent KD of MS2 coat protein [1]: 94.7 nM
- apparent KD of MS2 coat protein [2]: 45.5 nM

Sequence: GAAAAACAUGAGGAUCACCCAUGUAAGGAUAUGCGAAAAUAAAAUAAAAUAAAAUAAAGCAGAAGGUACAAAAA [Mat - Exclusion 1 - Eli mod - D1]
- apparent KD of MS2 coat protein [1]: 40.5 nM
- apparent KD of MS2 coat protein [2]: 29.5 nM

Sequence: AAAACGGCAGGAUAUACAAUUGAGAACUAGAUCGAAAAAAAACAUGAGGAUCACCCAUGUAGAAGGGCCAAAAA [Ex2 Malc#9]
- apparent KD of MS2 coat protein [1]: 55.3 nM
- apparent KD of MS2 coat protein [2]: 34.7 nM

Sequence: AAAAAACAUGAGGAUCACCCAUGUGAGGAUAUACAAAACCCAUAUAAAAAGGGAAAAAGUAGAAGGCACAAAAA [wbt round 1 mod 11]
- apparent KD of MS2 coat protein [1]: 33.9 nM
- apparent KD of MS2 coat protein [2]: 27.5 nM

Sequence: AAAACUGGAGGAUAUACGAACAUGUCGAAAGACGUGAAGGGACAUGAGGAUCACCCAUGUAGAAGGCUAGAAAA [Mat - Exclusion 2 - JL mod - D72]
- apparent KD of MS2 coat protein [1]: 58.4 nM
- apparent KD of MS2 coat protein [2]: 42.5 nM

Sequence: AACAGUACAGGAUAUACAUGAGGAUCACCCAUGUGAGAAUUAAAAGGCGUACCUAAAAGUAGAAGGGUACUGGA [JL Maslow Revisted mod 18]
- apparent KD of MS2 coat protein [1]: 73.2 nM
- apparent KD of MS2 coat protein [2]: 28.3 nM

Sequence: GGAGGGCAAGGAUAUACAUGAGGAUCACCCAUGUGAGAGAAAAAAGUGAGAAAGAAAAGUAGAAGGUGCUUUCG [salish99-ex3-130]
- apparent KD of MS2 coat protein [1]: 47.8 nM
- apparent KD of MS2 coat protein [2]: 38.8 nM

Sequence: AAAAAGGCAGGAUAUACAAAACAGGGAAACCUGAAAGGGAAACAUGAGGAUCACCCAUGUAGAAGGGCCAAGAA [Clint Eastwood 64% 1]
- apparent KD of MS2 coat protein [1]: 95.4 nM
- apparent KD of MS2 coat protein [2]: 37.3 nM

Sequence: AUCAUCCUAGGAUAUACAUGGAUAUACAUUCAUGUGGACCUACAUGAGGAUCACCCAUGUAGAAGGAGGAUGAA [Mat - Same state - Mayanna Mod - D139]
- apparent KD of MS2 coat protein [1]: 75.1 nM
- apparent KD of MS2 coat protein [2]: 36.7 nM

Sequence: AGUUGGCGAGGAUAUACAUGAGGAUCACCCAUGUGAGAGUAAAGAGUGAGAAAGAGAAGUAGAAGGCGCUGACA [Ruby 56]
- apparent KD of MS2 coat protein [1]: 180 nM
- apparent KD of MS2 coat protein [2]: 81.1 nM
